Experimental data published in patent US20020119944A1.

Biological target: neuropilin-1 on adult rat brain oligodendrocytes (rat) (UniProt Q9QWJ9)

- branching index (BI) of oligodendrocyte process extension (% decrease of BI at 48 h): 81
- half-effect, corresponding to a BI reduction of 50%: 25 ng/mL
Substance: Sema3A (ligand)
